According to US20060177826A1 (SERUM BIOMEDICAL INSTITUTE, published 2006):

Target: T1, human beta-FSH subunit (SDK-X1X2 expression product) (human, UniProt P01225 19-129)
T1 construct: Expressed from pTPKBFSH in co-transfected COS-7L and CHO-S cells and tested as secreted protein in the culture supernatant; also called β subunit of human FSH
Experiment: FSH-IRMA sandwich immunoradiometric assay (one mAb for the alpha subunit, one for the beta subunit) on supernatant of co-transfected cells; detects only the complete alpha and beta complex
Experimental: Following transfection, the cells were cultured in a selective medium containing 1000 μg/ml Geneticine and 400 μg/ml Blasticidin for 7 days. Geneticine-Blasticidine-resistant cells were transferred in a new culture medium containing Geneticine (200 μg/ml) and Blasticidin (200 μg/mL), and cultured to a cell density of 10⁶ cells/ml. The supernatant of this culture was than tested for the presence of the multisubunit (alpha subunit and beta subunit non-covalently associated) FSH complex.
The presence of the alpha and beta FSH complex was detected using the BIOSOURCE FSH-IRMA Kit (Biosource Europe S.A., Cat # KIP0841-KIP0844), an immunoradiometric assay kit for the quantitation of Follicle Stimulating Hormone (FSH). This FSH-IRMA assay is based on the use of two monoclonal antibodies, one specific for the alpha subunit of FSH and one for the beta subunit of FSH. Thus this assay only detects the complete alpha and beta FSH complex. The supernatant of pLenti6/V5-glycalA and the pTPKBFSH co-transfected cells was tested using the FSH-IRMA kit according to manufacturer's instructions.

T1 sequence (P01225 19-129 limits assumed): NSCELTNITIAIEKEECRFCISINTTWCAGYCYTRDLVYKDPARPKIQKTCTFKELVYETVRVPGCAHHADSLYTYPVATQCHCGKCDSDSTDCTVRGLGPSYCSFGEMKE

B1: human alpha-FSH subunit (glycalA expression product) (ligand)
chain: not shown
notes: Expressed from pLenti6/V5-glycalA in co-transfected COS-7L and CHO-S cells and tested as secreted protein in the culture supernatant; also called alpha subunit of FSH
binding result: binds
